The values that follow are results of earlier work, collected in patent US20240084044A1, “Heteromultivalent Nucleic Acid Scaffolds and Uses Thereof” (George Mason University, priority 2022, published 2024).

The data set deals with T1, ST2 (Homo sapiens, UniProt Q01638).
T1 sequence (Q01638 19-556): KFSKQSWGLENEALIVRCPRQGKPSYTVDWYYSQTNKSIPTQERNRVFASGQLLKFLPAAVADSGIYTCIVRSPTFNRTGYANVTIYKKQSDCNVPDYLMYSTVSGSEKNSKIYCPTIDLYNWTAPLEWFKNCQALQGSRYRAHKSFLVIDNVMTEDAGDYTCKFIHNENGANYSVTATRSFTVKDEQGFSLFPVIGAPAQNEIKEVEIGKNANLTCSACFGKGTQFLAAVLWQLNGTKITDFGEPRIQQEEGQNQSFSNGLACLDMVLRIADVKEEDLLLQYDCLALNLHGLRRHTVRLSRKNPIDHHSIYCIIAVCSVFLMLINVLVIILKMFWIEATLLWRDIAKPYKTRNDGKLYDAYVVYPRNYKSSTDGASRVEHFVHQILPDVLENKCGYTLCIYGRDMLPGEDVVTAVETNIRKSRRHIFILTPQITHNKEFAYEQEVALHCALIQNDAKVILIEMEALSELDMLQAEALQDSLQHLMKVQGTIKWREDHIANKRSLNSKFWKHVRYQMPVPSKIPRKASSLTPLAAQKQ
The following applies: reported value; read-out: Kd of ST2/IL-33 binary complex; cited from earlier work.

B1: IL-33: recombinant interleukin-33 cytokine, ligand of ST2 (protein, UniProt O95760 1-270, looked up)
Interleukin-33: MKPKMKYSTNKISTAKWKNTASKALCFKLGKSQQKAKEVCPMYFMKLRSGLMIKKEACYFRRETTKRPSLKTGRKHKRHLVLAACQQQSTVECFAFGISGVQKYTRALHDSSITGISPITEYLASLSTYNDQSITFALEDESYEIYVEDLKKDEKKDKVLLSYYESQHPSNESGDGVDGKMLMVTLSPTKDFWLHANNKEHSVELHKCEKPLPDQAFFVLHNMHSNCVSFECKTDPGVFIGVKDNHLALIKVDSSENLCTENILFKLSET
In the case of B1, the Kd is 26 pM.
